Laboratory results as given in publication PMC10779054.

How the values were obtained:
[1] = molecular target: SARS-CoV-2 nucleocapsid protein (SARS-CoV-2, UniProt P0DTC9 1-419); assay: aptamer-immuno-PCR (mAb sandwich, qPCR); PBS + 0.1% Tween 20 (PBST); 1 h at 21 C ([…]) or 37 C ([…]; conditions: protein: commercial; chain copies: 2
Taq DNA polymerase = Taq DNA polymerase (Thermus aquaticus, UniProt P19821 1-832); assay: qPCR of aptamer bound to immobilized protein; 50 nM aptamer; 0.5 ug Taq/well; 0.1% methylcellulose, BSA or Tween 20 block; PBS + 0.1% Tween 20 (PBST); 1 h at 21 C (44/70-Taq) or 37 C (NC aptamer-nucleocapsid); wells blocked with 0.1% BSA, Tween 20 or methylcellulose; PBST washes; conditions: protein: commercial

Binder | binding result [1] | binding result (Taq DNA polymerase)
NC aptamer (ssDNA) DNA: GCAATGGTACGGTACTTCCGGATGCGGAAACTGGCTAATTGGTGAGGCTGGGGCGGTCGTGCAGCAAAAGTGCACGCTACTTTGCTAA | binds | –
44/70 aptamer (ssDNA) DNA: CCTTGAACCTGTGCCATTTGCTAATTGAGACTATTATGGGCTTTTTAGTCGAACAGTAGGAAGATGGAGG | – | binds
